Results: paper PMC9555238, “Interaction of BES1 and LBD37 transcription factors modulates brassinosteroid-regulated root forging response under low nitrogen in arabidopsis”

Molecular target: T1, LBD37 (Arabidopsis thaliana, UniProt Q9FN11 1-250)
T1 sequence: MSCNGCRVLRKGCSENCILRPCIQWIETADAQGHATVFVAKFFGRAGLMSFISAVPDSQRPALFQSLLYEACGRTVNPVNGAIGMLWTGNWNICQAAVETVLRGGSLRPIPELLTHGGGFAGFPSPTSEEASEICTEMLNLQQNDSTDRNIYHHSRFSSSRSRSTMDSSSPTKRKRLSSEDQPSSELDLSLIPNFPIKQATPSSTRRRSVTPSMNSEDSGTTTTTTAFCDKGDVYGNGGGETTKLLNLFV
Test: EMSA; 5 mM HEPES-KOH pH 8.0, 50 mM KCl, 1 mM DTT, 10% glycerol, 20 uL, on ice 60 min; 5% native PAGE in TBE
Settings: protein: recombinant; tags: MBP (N-terminal, pMAL-c2X); (LightShift chemiluminescent kit)

B1: NRT2.1 promoter probe, mutated LOB motif (dsDNA)
DNA 1: AGACTAGGAAGATGCTTGAAAAGAAAATGGATTCCTCGAAA
DNA 2: TTTCGAGGAATCCATTTTCTTTTCAAGCATCTTCCTAGTCT
binding result: no binding
